For 14 molecules, OD450 results are on record in patent publication US20250320312A1 (OXITOPE PHARMA B V, published 2025).

Experiment in all cases: scFv ELISA
Test [1] addresses Peptide 5: Biotin-…-[Tyr(PC)]-acid.
The next test addresses BSA (UniProt P02769).
Test [2] addresses Peptide 1: Biotin-…-[Tyr(PC)]-acid.
For test [3], the target named is T1, Peptide 4: Biotin-AGGGGSGGGGSGGGGSAAA-Tyr-acid (N-terminal biotin; C-terminal acid).
T1 construct: control peptide without PC
T1 peptide: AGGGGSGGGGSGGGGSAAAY
As to the method:
(§1) For ELISA analysis of scFv binding, 96-well polystyrene plates were coated with Peptide 1, 4, 5, 8 or 100 μL BSA (10 μg/mL) in PBS at 4° C. overnight. Plates were washed three times with PBS-Tween and blocked with 100 μL 1% BSA-TBS for 1 hour at room temperature. 96-well streptavidin coated plates were coated with 100 μL biotinylated PC-peptides (1 μg/mL) in PBS for 1 hour at room temperature.
(§2) All plates were washed three times with PBS-Tween before 40 μL aliquots of PPE were added to assay plates along with 50 μL 10% BSA, and plates were incubated for 1 hour at room temperature. After washing, […] HRP conjugated anti-V5 in 5% BSA was added, and plates were incubated at room temperature for 30 mins. Plates were washed and 100 μL TMB substrate was added. Color was left to develop at room temperature before the reaction was stopped with 100 μL 1N HCl. The amount of scFv bound to each well was quantitated from absorbance measurement at 450 nm (OD450).

Test [4] deals with T2, Peptide 8: Biotin-AEAAAKEAAAKEAAAKEAAAKAAA-Tyr-acid (N-terminal biotin; C-terminal acid).
T2 construct: control peptide without PC
T2 peptide: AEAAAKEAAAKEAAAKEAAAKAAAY
On the procedure:
as §1, §2

Sequence of BSA (P02769 25-607 limits assumed): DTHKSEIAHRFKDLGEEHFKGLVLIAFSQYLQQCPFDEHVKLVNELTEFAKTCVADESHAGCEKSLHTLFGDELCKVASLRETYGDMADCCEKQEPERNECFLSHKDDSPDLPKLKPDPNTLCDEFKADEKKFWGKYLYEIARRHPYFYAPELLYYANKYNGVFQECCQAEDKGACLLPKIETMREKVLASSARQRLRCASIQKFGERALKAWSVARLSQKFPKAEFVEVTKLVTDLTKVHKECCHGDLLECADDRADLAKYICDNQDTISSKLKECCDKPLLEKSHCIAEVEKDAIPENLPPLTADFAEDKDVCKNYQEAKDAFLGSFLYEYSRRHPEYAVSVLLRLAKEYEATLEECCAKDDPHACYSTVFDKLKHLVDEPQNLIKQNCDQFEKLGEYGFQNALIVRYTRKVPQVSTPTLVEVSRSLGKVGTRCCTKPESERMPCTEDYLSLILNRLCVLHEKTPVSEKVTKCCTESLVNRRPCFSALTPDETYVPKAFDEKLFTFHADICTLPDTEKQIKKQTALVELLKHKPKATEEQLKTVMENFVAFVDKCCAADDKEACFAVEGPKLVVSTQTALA

B1: PcOxP_DB02_B06 (scFv, V domains shown)
VH: EVQLLESGGGLVQPGGSLRLSCAASGFTFSDNYMEWVRQAPGKGLEWVAASRNKANDYTTEYADSVKGRFTISRDNSKNTLYLQMNSLRAEDTAVYYCARDYYGSSYWYFDVWGQGTLVTVSS
VL: DIQMTQSPSSLSASVGDRVTITCTASESLYSSKHKVHYLAWYQQKPGKAPKLLIYGASNRYIGVPSRFSGSGSGTDFTLTISSLQPEDFATYYCTQFYSYPLTFGGGTKVEIK
notes: scFv in periplasmic extract
Turning to B1, the OD450 was 0.79 OD450 in test [1]; 0.11 OD450 with BSA; 0.35 OD450 in test [2]; 0.07 OD450 in test [3]; 0.04 OD450 in test [4].

B2: PcOxP_DB02_C11 (scFv, V domains shown)
VH: EVQLLESGGGLVQPGGSLRLSCAASGFTSSDFYMEWVRQAPGKGLEWVAASRNKANDYYTEYADSVKGRFTISRDNSKNTLYLQMNSLRAEDTAVYYCARDYYGSSYWYFDVWGQGTLVTVSS
VL: DIQMTQSPSSLSASVGDRVTITCTASESLYSSKHKVHYLAWYQQKPGKAPKLLIYGASNRYIGVPSRFSGSGSGTDFTLTISSLQPEDFATYYCAQFYSYPLTFGGGTKVEIK
notes: scFv in periplasmic extract
Consider B2, for which the OD450 stood at 0.24 OD450 in test [1]; 0.1 OD450 in the test with BSA; 0.12 OD450 in test [2]; 0.05 OD450 in test [3]; 0.04 OD450 in test [4].

B3: PcOxP_DB02_F02 (scFv, V domains shown)
VH: EVQLLESGGGLVQPGGSLRLSCAASGFTFSDFYMEWVRQAPGKGLEWVAASRNKANDYTTEYADSVKGRFTISRDNSKNTLYLQMNSLRAEDTAVYYCARDYYGSSYWYFDVWGQGTLVTVSS
VL: DIQMTQSPSSLSASVGDRVTITCFASESLYSSKHKVHYLAWYQQKPGKAPKLLIYGASNRGIGVPSRFSGSGSGTDFTLTISSLQPEDFATYYCAQFYSYPLTFGGGTKVEIK
notes: scFv in periplasmic extract
Consider B3, for which the OD450 in test [1] worked out at 0.6 OD450; with BSA, 0.11 OD450; in test [2], 0.37 OD450; in test [3] it was 0.05 OD450; in test [4], 0.05 OD450.

B4: PcOxP_DB02_C09 (scFv, V domains shown)
VH: EVQLLESGGGLVQPGGSLRLSCAASGFTFSDAYMEWVRQAPGKGLEWVAASRNKANDYTTEYADSVKGRFTISRDNSKNTLYLQMNSLRAEDTAVYYCARDYYGSSYWYFDVWGQGTLVTVSS
VL: DIQMTQSPSSLSASVGDRVTITCTASESLYSSKHKVHYLAWYQQKPGKAPKLLIYGAGNRYIGVPSRFSGSGSGTDFTLTISSLQPEDFATYYCAQFYFYPLTFGGGTKVEIK
notes: scFv in periplasmic extract
Consider B4, for which the OD450 was found to be 1.01 OD450 in test [1]; 0.1 OD450 in the test with BSA; 0.69 OD450 in test [2]; 0.05 OD450 in test [3]; 0.04 OD450 in test [4].

B5: PcOxP_DB02_B10 (scFv, V domains shown)
VH: EVQLLESGGGLVQPGGSLRLSCAASGFTESDFYMEWVRQAPGKGLEWVAASRNKANDYTTEYADSVKGRFTISRDNSKNTLYLQMNSLRAEDTAVYYCARDYYGSSYWYFDVWGQGTLVTVSS
VL: DIQMTQSPSSLSASVGDRVTITCTASESLYSSKHKVHYLAWYQQKPGKAPKLLIYGASNRYIGVPSRFSGSGSGTDFTLTISSLQPEDFATYYCAQFYVYPLTFGGGTKVEIK
notes: scFv in periplasmic extract
In the case of B5, the OD450 stood at 1.03 OD450 in test [1]; 0.08 OD450 in the test with BSA; 0.67 OD450 in test [2]; 0.04 OD450 in test [3]; 0.04 OD450 in test [4].

B6: PcOxP_DB02_D09 (scFv, V domains shown)
VH: EVQLLESGGGLVQPGGSLRLSCAASGFTFSTFYMEWVRQAPGKGLEWVAASRNKANDYTTEYADSVKGRFTISRDNSKNTLYLQMNSLRAEDTAVYYCARDYYGSSYWYFDVWGQGTLVTVSS
VL: DIQMTQSPSSLSASVGDRVTITCTASESLYSSKHKVHYLAWYQQKPGKAPKLLIYGASNRYGGVPSRFSGSGSGTDFTLTISSLQPEDFATYYCAQFYEYPLTFGGGTKVEIK
notes: scFv in periplasmic extract
With B6, the OD450 came to 0.44 OD450 in test [1]; 0.11 OD450 with BSA; 0.16 OD450 in test [2]; 0.05 OD450 in test [3]; 0.04 OD450 in test [4].

B7: PcOxP_DB02_E10 (scFv, V domains shown)
VH: EVQLLESGGGLVQPGGSLRLSCAASGFTFSDQYMEWVRQAPGKGLEWVAASRNKANDYQTEYADSVKGRFTISRDNSKNTLYLQMNSLRAEDTAVYYCARDYYGSSYWYFDVWGQGTLVTVSS
VL: DIQMTQSPSSLSASVGDRVTITCTASESLYSGKHKVHYLAWYQQKPGKAPKLLIYGASNLQIGVPSRFSGSGSGTDFTLTISSLQPEDFATYYCAQFYYYPLTFGGGTKVEIK
notes: scFv in periplasmic extract
For the molecule B7, the OD450 in test [1] turned out to be 0.79 OD450; with BSA it was 0.09 OD450; in test [2], 0.52 OD450; in test [3], 0.04 OD450; in test [4] it was 0.04 OD450.

B8: PcOxP_DB02_C02 (scFv, V domains shown)
VH: EVQLLESGGGLVQPGGSLRLSCAASGFTFSDFYMEWVRQAPGKGLEWVAASRNKANDYTVEYADSVKGRFTISRDNSKNTLYLQMNSLRAEDTAVYYCARDYYGHSYWYFDVWGQGTLVTVSS
VL: DIQMTQSPSSLSASVGDRVTITCTASESLYSSKHKVHYLAWYQQKPGKAPKLLIYGASNRYIGVPSRFSGSGSGTDFTLTISSLQPEDFATYYCAQFYSYPLTFGGGTKVEIK
notes: scFv in periplasmic extract
As for B8, the OD450 in test [1] came to 0.62 OD450; with BSA it was 0.1 OD450; in test [2], 0.35 OD450; in test [3], 0.05 OD450; in test [4] it was 0.05 OD450.

B9: PcOxP_DB02_C01 (scFv, V domains shown)
VH: EVQLLESGGGLVQPGGSLRLSCAASGFTFSDAYMEWVRQAPGKGLEWVAASRNKANDYTTEYADSVKGRFTISRDNSKNTLYLQMNSLRAEDTAVYYCARDYYGSSYWYFDVWGQGTLVTVSS
VL: DIQMTQSPSSLSASVGDRVTITCTASESLYSSKHKVHYLAWYQQKPGKAPKLLIYGASNRYIGVPSRFSGSGSGTDFTLTISSLQPEDFATYYCAQFYSYPLTFGGGTKVEIK
notes: scFv in periplasmic extract
Take B9: the OD450 was found to be 1.47 OD450 in test [1]; 0.1 OD450 in the test with BSA; 1.03 OD450 in test [2]; 0.06 OD450 in test [3]; 0.05 OD450 in test [4].

B10: PcOxP_DB02_D01 (scFv, V domains shown)
VH: EVQLLESGGGLVQPGGSLRLSCAASGFGFSDFYMEWVRQAPGKGLEWVAASRHKANDYTTEYADSVKGRFTISRDNSKNTLYLQMNSLRAEDTAVYYCARDYYGSSYWYFDVWGQGTLVTVSS
VL: DIQMTQSPSSLSASVGDRVTITCTASESLYSSKHKVHYLAWYQQKPGKAPKLLIYGASNRYIGVPSRFSGSGSGTDFTLTISSLQPEDFATYYCAQFYWYPLTFGGGTKVEIK
notes: scFv in periplasmic extract
B10: the OD450 in test [1] was 0.35 OD450; with BSA, 0.09 OD450; in test [2] it was 0.31 OD450; in test [3], 0.05 OD450; in test [4], 0.05 OD450.

B11: PcOxP_DB02_C06 (scFv, V domains shown)
VH: EVQLLESGGGLVQPGGSLRLSCAASGFTFSDAYMEWVRQAPGKGLEWVAASRNKANDYTTEYADSVKGRFTISRDNSKNTLYLQMNSLRAEDTAVYYCARDYYGSSYWYFDVWGQGTLVTVSS
VL: DIQMTQSPSSLSASVGDRVTITCTASEWLYSSKHKVHYLAWYQQKPGKAPKLLIYGASNRNIGVPSRFSGSGSGTDFTLTISSLQPEDFATYYCAQFYYYPLTFGGGTKVEIK
notes: scFv in periplasmic extract
With B11, the OD450 in test [1] is 1.03 OD450; with BSA it was 0.11 OD450; in test [2], 0.54 OD450; in test [3], 0.05 OD450; in test [4] it was 0.05 OD450.

B12: PcOxP_DB02_E01 (scFv, V domains shown)
VH: EVQLLESGGGLVQPGGSLRLSCAASGFTFSDQYMEWVRQAPGKGLEWVAASRNKANDYTTEYADSVKGRFTISRDNSKNTLYLQMNSLRAEDTAVYYCARDYYGSSYWYFDVWGQGTLVTVSS
VL: DIQMTQSPSSLSASVGDRVTITCTASESLYSSKHKVHYLAWYQQKPGKAPKLLIYGASGRYIGVPSRFSGSGSGTDFTLTISSLQPEDFATYYCAQFYSYPLTFGGGTKVEIK
notes: scFv in periplasmic extract
Regarding B12, the OD450 in test [1] turned out to be 0.63 OD450; with BSA it was 0.11 OD450; in test [2], 0.43 OD450; in test [3], 0.05 OD450; in test [4], 0.1 OD450.

B13: PcOxP_DB02_B12 (scFv, V domains shown)
VH: EVQLLESGGGLVQPGGSLRLSCAASGFTFSDYYMEWVRQAPGKGLEWVAASRNKANDYTTEYADSVKGRFTISRDNSKNTLYLQMNSLRAEDTAVYYCARDYYGSSYWYFDVWGQGTLVTVSS
VL: DIQMTQSPSSLSASVGDRVTITCTASESLYSSKHKVHYLAWYQQKPGKAPKLLIYGQSNRYIGVPSRFSGSGSGTDFTLTISSLQPEDFATYYCAQFYSYPLTFGGGTKVEIK
notes: scFv in periplasmic extract
On to B13, for which the OD450 is 1.34 OD450 in test [1]; 0.1 OD450 with BSA; 2.33 OD450 in test [2]; 0.05 OD450 in test [3]; 0.04 OD450 in test [4].

B14: PcOxP_DB02_D10 (scFv, V domains shown)
VH: EVQLLESGGGLVQPGGSLRLSCAASGFTFSDQYMEWVRQAPGKGLEWVAASRNKANDYTTEYADSVKGRFTISRDNSKNTLYLQMNSLRAEDTAVYYCARDYYGSSYWYFDVWGQGTLVTVSS
VL: DIQMTQSPSSLSASVGDRVTITCTATESLYSSKHKVHYLAWYQQKPGKAPKLLIYGASNRYTGVPSRFSGSGSGTDFTLTISSLQPEDFATYYCAQFYSYPLTFGGGTKVEIK
notes: scFv in periplasmic extract
Take B14: the OD450 in test [1] was found to be 1.01 OD450; with BSA it was 0.1 OD450; in test [2], 0.69 OD450; in test [3], 0.05 OD450; in test [4], 0.04 OD450.
